Experimental data reported in the supplement of paper PMC11246515.
± gives the standard deviation of the averaged measurements.

Experiment: total protein half-life in vivo (active degradation + dilution); higher = more stable protein
[1] = E. coli NCM3722 delta-clpP delta-lon delta-hslV, growth: N-lim chemostat, doubling time 6 h
[2] = E. coli NCM3722 delta-clpP, growth: N-lim chemostat, doubling time 6 h
[3] = E. coli NCM3722 delta-smpB, growth: N-lim chemostat, doubling time 6 h
[4] = wild type E. coli NCM3722, growth: C-lim chemostat, doubling time 3 h
[5] = wild type E. coli NCM3722, growth: C-lim chemostat, doubling time 6 h
[6] = wild type E. coli NCM3722, growth: C-lim chemostat, doubling time 12 h
[7] = wild type E. coli NCM3722, growth: N-lim chemostat, doubling time 6 h
[8] = wild type E. coli NCM3722, growth: N-lim chemostat, doubling time 12 h
[9] = wild type E. coli NCM3722, growth: P-lim chemostat, doubling time 6 h
[10] = wild type E. coli NCM3722, growth: P-lim chemostat, doubling time 12 h
[11] = E. coli NCM3722 delta-hslV, growth: N-lim chemostat, doubling time 6 h
[12] = E. coli NCM3722 delta-lon, growth: N-lim chemostat, doubling time 6 h

## MSGARLHTLLPELTTRQSVMVVGAAVIDVIADAYALPWRGCDIELKQQSVNVGGCALNIAVALKRLGIEAGNALPLGQGVWAEMIRNRMAKEGLISLIDNAEGDNGWCLALVEPDGERTFMSFSGVENQWNRQWLARLTVAPGSLLYFSGYQLASPCGELLVEWLEELQDVTPFIDFGPRIGDIPDALLARIMACRPLVSLNRQEAEIAAERFALSAEITTLGKQWQEKFAAPLIVRLDKEGAWYFSNDASGCIPAFPTQVVDTIGAGDSHAGGVLAGLASGLPLADAVLLGNAVASWVVGHRGGDCAPTREELLLAHKNV
[1]
  total protein half-life in vivo: 4.46 ± 0.92 h
[2]
  total protein half-life in vivo: 3.62 ± 0.076 h
[3]
  total protein half-life in vivo: 3.76 ± 0.33 h
[4]
  total protein half-life in vivo: 3.02 ± 0.012 h
[5]
  total protein half-life in vivo: 4.79 ± 0.53 h
[6]
  total protein half-life in vivo: 6.71 ± 3.7 h
[7]
  total protein half-life in vivo: 3.67 ± 0.096 h
[8]
  total protein half-life in vivo: 6.33 ± 1.1 h
[9]
  total protein half-life in vivo: 4.76 ± 0.76 h
[10]
  total protein half-life in vivo: 11.1 ± 2.4 h

## MSGFFQRLFGKDNKPAIARGPLGLHLNSGFTLDTLAFRLLEDELLIALPGEEFTVAAVSHIDLGGGSQIFRYYTSGDEFLQINTTGGEDIDDIDDIKLFVYEESYGISKESHWREAINAKAMGAMTLNWQEKRWQRFFNSEEPGNIEPVYMLEKVENQNHAKWEVHNFTMGYQRQVTEDTYEYLLLNGEESFNDLGEPEWLFSRALGVDIPLTSLHIIG
[1]
  total protein half-life in vivo: 4.45 h
[11]
  total protein half-life in vivo: 6.47 ± 1 h
[12]
  total protein half-life in vivo: > 8 h
[4]
  total protein half-life in vivo: 3.22 h
[6]
  total protein half-life in vivo: 12.2 h
[7]
  total protein half-life in vivo: 5.26 h
[9]
  total protein half-life in vivo: 6.38 h

## MSGGLVTAAYIVAAILFIFSLAGLSKHETSRQGNNFGIAGMAIALIATIFGPDTGNVGWILLAMVIGGAIGIRLAKKVEMTEMPELVAILHSFVGLAAVLVGFNSYLHHDAGMAPILVNIHLTEVFLGIFIGAVTFTGSVVAFGKLCGKISSKPLMLPNRHKMNLAALVVSFLLLIVFVRTDSVGLQVLALLIMTAIALVFGWHLVASIGGADMPVVVSMLNSYSGWAAAAAGFMLSNDLLIVTGALVGSSGAILSYIMCKAMNRSFISVIAGGFGTDGSSTGDDQEVGEHREITAEETAELLKNSHSVIITPGYGMAVAQAQYPVAEITEKLRARGINVRFGIHPVAGRLPGHMNVLLAEAKVPYDIVLEMDEINDDFADTDTVLVIGANDTVNPAAQDDPKSPIAGMPVLEVWKAQNVIVFKRSMNTGYAGVQNPLFFKENTHMLFGDAKASVDAILKAL [P0AB67]
[1]
  total protein half-life in vivo: 6.55 ± 0.55 h
[2]
  total protein half-life in vivo: 6.742 ± 0.019 h
[11]
  total protein half-life in vivo: 6.72 ± 1.3 h
[12]
  total protein half-life in vivo: 5.57 ± 0.22 h
[3]
  total protein half-life in vivo: 6.05 ± 0.38 h
[4]
  total protein half-life in vivo: 3.36 ± 0.3 h
[5]
  total protein half-life in vivo: 6.08 ± 1.6 h
[6]
  total protein half-life in vivo: 14.8 ± 0.91 h
[7]
  total protein half-life in vivo: 6.02 ± 0.96 h
[8]
  total protein half-life in vivo: 11.7 ± 0.14 h
[9]
  total protein half-life in vivo: 6.5 ± 0.41 h
[10]
  total protein half-life in vivo: 11.6 ± 1.1 h

## MSGLRPALSTFIFLLLITGGVYPLLTTVLGQWWFPWQANGSLIREGDTVRGSALIGQNFTGNGYFHGRPSATAEMPYNPQASGGSNLAVSNPELDKLIAARVAALRAANPDASASVPVELVTASASGLDNNITPQAAAWQIPRVAKARNLSVEQLTQLIAKYSQQPLVKYIGQPVVNIVELNLALDKLDE
[11]
  total protein half-life in vivo: 4.28 h
[10]
  total protein half-life in vivo: 11.7 ± 2.1 h

## MSHLAELVASAKAAISQASDVAALDNVRVEYLGKKGHLTLQMTTLRELPPEERPAAGAVINEAKEQVQQALNARKAELESAALNARLAAETIDVSLPGRRIENGGLHPVTRTIDRIESFFGELGFTVATGPEIEDDYHNFDALNIPGHHPARADHDTFWFDTTRLLRTQTSGVQIRTMKAQQPPIRIIAPGRVYRNDYDQTHTPMFHQMEGLIVDTNISFTNLKGTLHDFLRNFFEEDLQIRFRPSYFPFTEPSAEVDVMGKNGKWLEVLGCGMVHPNVLRNVGIDPEVYSGFAFGMGMERLTMLRYGVTDLRSFFENDLRFLKQFK
[1]
  total protein half-life in vivo: 5.84 ± 0.27 h
[2]
  total protein half-life in vivo: 6.11 ± 0.96 h
[11]
  total protein half-life in vivo: 5.72 ± 0.43 h
[12]
  total protein half-life in vivo: 6.07 ± 0.69 h
[3]
  total protein half-life in vivo: 4.98 ± 0.13 h
[4]
  total protein half-life in vivo: 3.49 ± 0.22 h
[5]
  total protein half-life in vivo: 6.19 ± 0.32 h
[6]
  total protein half-life in vivo: 12.5 ± 0.82 h
[7]
  total protein half-life in vivo: 5.37 ± 0.42 h
[8]
  total protein half-life in vivo: 9.85 ± 0.2 h
[9]
  total protein half-life in vivo: 6.28 ± 0.36 h
[10]
  total protein half-life in vivo: 12.91 ± 0.048 h

## MSHLDNGFRSLTLQRFPATDDVNPLQAWEAADEYLLQQLDDTEIRGPVLILNDAFGALSCALAEHKPYSIGDSYISELATRENLRLNGIDESSVKFLDSTADYPQQPGVVLIKVPKTLALLEQQLRALRKVVTSDTRIIAGAKARDIHTSTLELFEKVLGPTTTTLAWKKARLINCTFNEPQLADAPQTVSWKLEGTDWTIHNHANVFSRTGLDIGARFFMQHLPENLEGEIVDLGCGNGVIGLTLLDKNPQAKVVFVDESPMAVASSRLNVETNMPEALDRCEFMINNALSGVEPFRFNAVLCNPPFHQQHALTDNVAWEMFHHARRCLKINGELYIVANRHLDYFHKLKKIFGNCTTIATNNKFVVLKAVKLGRRR
[1]
  total protein half-life in vivo: 5.55 ± 0.53 h
[2]
  total protein half-life in vivo: 5.19 ± 0.25 h
[11]
  total protein half-life in vivo: 5.29 ± 0.23 h
[12]
  total protein half-life in vivo: 5.64 ± 0.14 h
[3]
  total protein half-life in vivo: 4.7 ± 0.66 h
[4]
  total protein half-life in vivo: 3.05 ± 0.51 h
[5]
  total protein half-life in vivo: 5.87 ± 0.088 h
[6]
  total protein half-life in vivo: 11.9 ± 1.5 h
[7]
  total protein half-life in vivo: 5.175 ± 0.041 h
[8]
  total protein half-life in vivo: 8.16 ± 1.4 h
[9]
  total protein half-life in vivo: 5.7 h

## MSHLKDPTTQYYTGEYPKQKQPTPGIQAKMTPVPDCGEKTYVGSGRLKDRKALVTGGDSGIGRAAAIAYAREGADVAISYLPVEEEDAQDVKKIIEECGRKAVLLPGDLSDEKFARSLVHEAHKALGGLDIMALVAGKQVAIPDIADLTSEQFQKTFAINVFALFWLTQEAIPLLPKGASIITTSSIQAYQPSPHLLDYAATKAAILNYSRGLAKQVAEKGIRVNIVAPGPIWTALQISGGQTQDKIPQFGQQTPMKRAGQPAELAPVYVYLASQESSYVTAEVHGVCGGEHLG [P0AG84]
[1]
  total protein half-life in vivo: 5.31 ± 0.2 h
[2]
  total protein half-life in vivo: 5.27 ± 0.099 h
[11]
  total protein half-life in vivo: 5.82 ± 0.34 h
[12]
  total protein half-life in vivo: 5.57 ± 0.34 h
[3]
  total protein half-life in vivo: 5.06 ± 0.66 h
[4]
  total protein half-life in vivo: 3.13 ± 0.54 h
[5]
  total protein half-life in vivo: 6.3 ± 0.59 h
[6]
  total protein half-life in vivo: 11.4 ± 2.8 h
[7]
  total protein half-life in vivo: 5.32 ± 0.27 h
[8]
  total protein half-life in vivo: 9.18 ± 0.35 h
[9]
  total protein half-life in vivo: 5.5 ± 0.43 h
[10]
  total protein half-life in vivo: 10.73 ± 0.025 h
